Our source for the koff, kon and Kd values is patent publication US20260217789A1 (GLYCOERA, published 2026).

Assay [1] deals with T1, PLA2R glycoengineered polypeptide (human, UniProt Q13018 21-505, N-glycans, mainly A2GalNAc2 (83.6% of total N-glycan); six N-glycosylation sites: N93, N315, N433, N454, N473 and one in the C-terminal glycotag; occupancy per Table 2: N93 >99%, N315 <10%, N433 <1%, …).
T1 construct: Secreted from glycoengineered Leishmania tarentolae (cell line StCGP6199) and purified by IMAC; also called exemplary PLA2R glycoengineered polypeptide; glycoengineered PLA2R polypeptide
T1 sequence (Q13018 other isoform, or with tags, fused parts or gaps): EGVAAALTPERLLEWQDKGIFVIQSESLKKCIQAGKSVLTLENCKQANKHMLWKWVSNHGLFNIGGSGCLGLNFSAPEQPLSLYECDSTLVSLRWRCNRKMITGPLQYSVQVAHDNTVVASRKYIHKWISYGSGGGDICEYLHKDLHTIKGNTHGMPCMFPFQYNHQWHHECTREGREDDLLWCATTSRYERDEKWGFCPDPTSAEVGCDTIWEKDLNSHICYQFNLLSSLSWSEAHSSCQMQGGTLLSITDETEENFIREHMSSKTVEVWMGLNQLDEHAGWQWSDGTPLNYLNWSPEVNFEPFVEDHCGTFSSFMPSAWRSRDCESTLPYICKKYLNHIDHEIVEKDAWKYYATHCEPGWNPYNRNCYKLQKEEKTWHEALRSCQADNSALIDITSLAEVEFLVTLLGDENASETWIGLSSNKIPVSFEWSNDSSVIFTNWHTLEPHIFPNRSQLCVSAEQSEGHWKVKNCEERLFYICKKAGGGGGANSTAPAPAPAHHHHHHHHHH
The assay can be described thus: SPR (Biacore 8K), single cycle kinetics, immobilized ligand ASGPR1 1ug/mL (biotinylated, streptavidin capture), heterogeneous binding model; column kd1 (first component). From the text:
(§1) Methods: Surface plasmon resonance (SPR) was used to measure binding kinetics (i.e., ka, kd, KD, equilibrium) of a glycoengineered PLA2R polypeptide. SPR data was collected with a Biacore 8K instrument to characterize interactions between the PLA2R glycoengineered polypeptide and surrogate anti-PLA2R antibody 12-6-5 in multiple assay formats. The surrogate antibody was either captured using the Fc tag or covalently immobilized on the sensor surface, and the PLA2R glycoengineered polypeptide construct was injected in increasing concentrations in a single cycle kinetics experiment. The contact time was 300 s and the dissociation time was 1200 s. The data was fit to a 1:1 binding model with the global fitting software provided by Cytivia. For ASGPR1 binding experiments, biotinylated recombinant human ASGPR1 (Acro Biosystems) was immobilized using streptavidin capture, and increasing concentrations of the PLA2R glycoengineered polypeptide were injected in a single cycle kinetics experiment. ASGPR1 assays included 2 mM CaCl₂) in the running buffer. The data were fit using a heterogeneous binding model using the Cytvia provided software.
For orientation: SPR reads the build-up and loss of mass on a sensor chip optically.

Assay [2] deals with T1, PLA2R glycoengineered polypeptide. The assay can be described thus: SPR (Biacore 8K), single cycle kinetics, immobilized ligand ASGPR1 1ug/mL (biotinylated, streptavidin capture), heterogeneous binding model; column ka1 (first component).
Text: as §1

The target is the same in assay [3]. Kind of assay: SPR (Biacore 8K), single cycle kinetics, immobilized ligand ASGPR1 1ug/mL (biotinylated, streptavidin capture), heterogeneous binding model; column KD1 (first component).
Text: as §1

Assay [4] has the same target. The assay can be described thus: SPR, Biacore 8K, single cycle kinetics, heterogeneous binding model; biotinylated ASGPR1 on streptavidin, 2 mM CaCl2 (FIG. 1C).
Text: as §1

For assay [5] the target is unchanged. The assay can be described thus: SPR, Biacore 8K, steady state KD; biotinylated ASGPR1 on streptavidin, 2 mM CaCl2 (FIG. 1C).
Text: as §1

B1: biotinylated recombinant human ASGPR1 (Acro Biosystems) (receptor, UniProt P07306 62-291, looked up)
chain: QNSQLQEELRGLRETFSNFTASTEAQVKGLSTQGGNVGRKMKSLESQLEKQQKDLSEDHSSLLLHVKQFVSDLRSLSCQMAALQGNGSERTCCPVNWVEHERSCYWFSRSGKAWADADNYCRLEDAHLVVVTSWEEQKFVQHHIGPVNTWMGLHDQNGPWKWVDGTDYETGFKNWRPEQPDDWYGHGLGGGEDCAHFTDDGRWNDDVCQRPYRWVCETELDKASQEPPLL
modifications: biotinylated
notes: It was immobilized by streptavidin capture
As to B1, the off-rate constant (koff) – broadly, the rate constant with which the complex falls apart – worked out at 0.00294 s⁻¹ in assay [1] and 0.104 s⁻¹ in assay [4]. Moreover, the results for the kon in assay [2] and in assay [4] were 421000 M⁻¹ s⁻¹ and 80900 M⁻¹ s⁻¹, respectively. The Kd (usually the concentration at which binding is half-saturated) in assay [3] came to 7 nM; in assay [5], 1280 nM.
